Results taken from publication PMC6886297.

What was measured:
[1] = biological target: YFP‐labeled Bcl‐xl (UniProt Q07817); experiment: FRET or BRET; live-cell FRET two-hybrid assay (E-FRET and 3^3-FRET) in HeLa cells coexpressing CFP-Mff and YFP-Bcl-xl, 50 µM Z-VAD-FMK; cytoplasm of cells with punctate Mff and Bcl-xl distribution (ROI 3)
[2] = biological target: YFP‐labeled Bcl‐xl (UniProt Q07817); experiment: FRET or BRET; live-cell FRET two-hybrid assay (E-FRET and 3^3-FRET) in HeLa cells coexpressing CFP-Mff and YFP-Bcl-xl, 50 µM Z-VAD-FMK; cytoplasm of cells with filamentous Mff and Bcl-xl distribution (ROI 1)
[3] = biological target: YFP‐labeled Bcl‐xl (UniProt Q07817); experiment: FRET or BRET; live-cell FRET two-hybrid assay (E-FRET and 3^3-FRET) in HeLa cells coexpressing CFP-Mff and YFP-Bcl-xl, 50 µM Z-VAD-FMK; fragmented mitochondrial region of cells with punctate distribution (ROI 4)
[4] = biological target: YFP‐labeled Bcl‐xl (UniProt Q07817); experiment: FRET or BRET; live-cell FRET two-hybrid assay (E-FRET and 3^3-FRET) in HeLa cells coexpressing CFP-Mff and YFP-Bcl-xl, 50 µM Z-VAD-FMK; tubular mitochondrial region of cells with filamentous distribution (ROI 2)

Chain of UniProt Q07817 (Q07817 whole entry, the tested form may be a part): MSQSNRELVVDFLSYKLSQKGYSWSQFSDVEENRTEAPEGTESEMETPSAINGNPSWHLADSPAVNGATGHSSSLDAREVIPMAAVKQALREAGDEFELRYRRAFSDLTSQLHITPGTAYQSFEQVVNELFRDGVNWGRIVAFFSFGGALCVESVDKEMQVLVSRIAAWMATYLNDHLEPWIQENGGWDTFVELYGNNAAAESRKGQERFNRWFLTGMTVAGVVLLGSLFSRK

## CFP‐labeled Mff (mitochondrial fission factor) (from UniProt Q9GZY8 1-342) (natural protein)
[1]
  EA (acceptor-centric FRET efficiency): 0.072
  ED (donor-centric FRET efficiency): 0.041
  stoichiometry N: 0.643 Bcl‐xl/Mff
[2]
  EA (acceptor-centric FRET efficiency): 0.151
  ED (donor-centric FRET efficiency): 0.086
  stoichiometry N: 0.586 Bcl‐xl/Mff
[3]
  EA (acceptor-centric FRET efficiency): 0.115
  ED (donor-centric FRET efficiency): 0.109
  stoichiometry N: 0.924 Bcl‐xl/Mff
[4]
  EA (acceptor-centric FRET efficiency): 0.071
  ED (donor-centric FRET efficiency): 0.067
  stoichiometry N: 0.97 Bcl‐xl/Mff
